Measured values taken from patent US20080064628A1, “Fibrinogen Targetting Microparticles For Promoting Haemostasis” (Haemostatix Limited, priority 2003, published 2008).
Ends that are not written are not given here.

Experiments:
fibrinogen = molecular target: T1, fibrinogen (Homo sapiens, UniProt P02675+P02679); test: Fibrinogen binding assay: FITC-labelled anti-human fibrinogen antibody, flow cytometry; settings: for Percent positive (percentage of microspheres positive for fibrinogen): flow cytometry, FITC rabbit anti-human fibrinogen antibody; for Median fluorescence intensity: measure of the amount of fibrinogen bound to the microspheres
T1 construct: purchased Scottish National Blood Transfusion Service
T1 sequence (P02671 20-629 partner limits assumed): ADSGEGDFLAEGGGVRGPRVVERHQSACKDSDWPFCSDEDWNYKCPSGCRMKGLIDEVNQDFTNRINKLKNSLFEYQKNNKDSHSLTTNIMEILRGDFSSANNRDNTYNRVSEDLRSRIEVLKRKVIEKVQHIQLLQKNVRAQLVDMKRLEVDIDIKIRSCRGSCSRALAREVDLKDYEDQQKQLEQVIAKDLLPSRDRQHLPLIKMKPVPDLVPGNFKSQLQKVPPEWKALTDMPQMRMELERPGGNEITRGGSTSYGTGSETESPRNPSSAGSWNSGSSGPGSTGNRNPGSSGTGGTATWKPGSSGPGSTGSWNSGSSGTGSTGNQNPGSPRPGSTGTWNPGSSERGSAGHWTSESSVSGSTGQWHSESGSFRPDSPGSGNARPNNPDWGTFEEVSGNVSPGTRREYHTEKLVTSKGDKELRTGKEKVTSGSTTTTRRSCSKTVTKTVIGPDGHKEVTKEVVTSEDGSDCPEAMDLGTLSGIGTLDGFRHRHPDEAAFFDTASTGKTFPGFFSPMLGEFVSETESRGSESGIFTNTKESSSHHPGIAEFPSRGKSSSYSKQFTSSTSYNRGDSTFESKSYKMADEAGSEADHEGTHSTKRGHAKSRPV
T1 sequence (P02675 31-491): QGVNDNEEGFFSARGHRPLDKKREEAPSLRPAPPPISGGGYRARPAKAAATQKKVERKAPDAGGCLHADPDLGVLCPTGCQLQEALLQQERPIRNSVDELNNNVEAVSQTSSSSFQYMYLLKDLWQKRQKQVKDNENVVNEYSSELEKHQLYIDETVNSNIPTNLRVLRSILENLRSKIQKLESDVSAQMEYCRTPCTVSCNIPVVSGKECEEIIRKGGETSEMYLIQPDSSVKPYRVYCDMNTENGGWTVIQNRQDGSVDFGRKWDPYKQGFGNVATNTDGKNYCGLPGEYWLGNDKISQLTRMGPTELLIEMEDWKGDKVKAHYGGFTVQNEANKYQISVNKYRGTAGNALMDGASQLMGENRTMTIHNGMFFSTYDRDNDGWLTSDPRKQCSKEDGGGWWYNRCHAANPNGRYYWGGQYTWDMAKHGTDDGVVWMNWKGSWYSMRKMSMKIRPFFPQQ
T1 sequence (P02679 27-437 isoform P02679-2 limits assumed): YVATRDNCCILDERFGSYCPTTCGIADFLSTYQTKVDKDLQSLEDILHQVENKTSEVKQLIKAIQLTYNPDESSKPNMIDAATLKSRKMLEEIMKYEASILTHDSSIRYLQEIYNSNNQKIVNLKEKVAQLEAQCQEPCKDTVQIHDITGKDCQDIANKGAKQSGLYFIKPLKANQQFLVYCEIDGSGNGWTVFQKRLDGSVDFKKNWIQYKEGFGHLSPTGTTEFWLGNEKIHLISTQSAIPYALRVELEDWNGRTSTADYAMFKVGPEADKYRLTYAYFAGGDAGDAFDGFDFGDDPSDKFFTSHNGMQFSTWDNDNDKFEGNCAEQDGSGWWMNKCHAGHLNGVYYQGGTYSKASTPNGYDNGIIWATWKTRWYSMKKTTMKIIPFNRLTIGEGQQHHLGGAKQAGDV
Method: 2. Fibrinogen Binding Assay
(i) 5 μl of a suspension of artificial platelets obtained from step (iv) of method 1 above was added to 50 μl of HEPES buffered saline containing 1 μl of FITC-labelled rabbit antibody to human fibrinogen (DakoCytomation; F0111). The mixture was incubated at 20° C. for 20 minutes. Blank microspheres (without DTNB treatment or peptide) or a cysteine control sample were used as a negative control for these assays.
(ii) After 20 minutes the reaction was stopped by the addition of 0.5 ml saline. After a further 10 minutes, the sample was diluted 1/10 in saline and analysed in a Flow Cytometer (e.g. Coulter XL-MCL Flow Cytometer).
(iii) Data were recorded as the percentage of microspheres positive for fibrinogen and the median fluorescence intensity of the particles. The latter is a measure of the amount of fibrinogen bound to the microspheres and is in arbitrary units (log scale).

thrombin = test: Response of products to thrombin in platelet-free plasma (light transmission aggregometer); format: biochemical, human; settings: increase in light transmission over 20 minutes, mean ± sd of 4 experiments
Method: Cross-linking of the agent of the invention via fibrin-fibrin bridging can be tested in a modified aggregation assay, for example, a protocol based on Levi et al, 1999, Nature Medicine, […], 107-111. The method that we used is reported below.
The assay was performed using a light transmission aggregometer (we used a PAP4 aggregometer (BioData Corporation)). […] Aggregation of the microspheres causes an increase in light transmission, which can be recorded as percentage “aggregation” relative to plasma alone.
The microspheres can be counted using a particle counter such as a Flow cytometer (e.g. Beckman Coulter MCL-XL) or Coulter Z2.
(ii) Platelet-free plasma was prepared by centrifuging blood for 30 minutes at 1500× g and collecting the supernatant.
(iii) 350 μl platelet-free plasma was placed in an aggregometer cuvette and 50 μl of blank microspheres were added. […]

platelets [1] = test: Platelet aggregation in platelet-depleted plasma by counting single platelets in a flow cytometer; format: cell-based, human; settings: mean ± sd of 3 experiments; for Percentage aggregation in the absence of ADP: inactive platelets, percentage loss of single CD42b-positive platelets from the gate; for Percentage aggregation in the presence of ADP: platelets activated with sub-optimal ADP, percentage loss of single CD42b-positive platelets
Method: 3.2 Preparation of Platelet-Depleted Plasma
(i) Two tubes of blood were collected into tri-sodium citrate anticoagulant, by clean venepuncture via a 21 gauge butterfly needle. The blood was processed within 10 minutes of collection, to minimise platelet activation in vitro.
(ii) One tube of blood was centrifuged at 150× g for 20 minutes at 20° C. to prepare platelet rich plasma (PRP).
(iii) A second tube of blood was centrifuged at 1500× g for 30 minutes at 20° C. to prepare platelet poor plasma (PPP).
(iv) The PRP was removed from the blood cell fraction and mixed with the PPP to achieve a platelet count of between 10 and 50×10^6 platelets/ml.
4.1 Method for Measuring Aggregation by Counting in a Flow Cytometer
Flow cytometry can be used to count the number of residual single platelets, and thereby to calculate the percentage of platelets that have bound to artificial platelets. The sample is analysed by the forward and side scatter and an electronic gate is set around the population of single platelets. To do this a sample of platelet-rich plasma is used that contains EDTA to prevent platelet-platelet aggregation occurring. The platelets are labelled with a fluorescently-conjugated antibody such as a CD42b monoclonal that binds to the GPIb receptor on all platelets.
As aggregation occurs the number of platelets within the gate declines. The artificial platelets should not induce aggregation of non-activated (“resting”) platelets. If, however, the platelets are activated, for example by ADP they should aggregate with the artificial platelets. In this assay a sub-optimal concentration of ADP is used to distinguish the effects of the artificial platelets in platelet-deficient plasma.
(i) To set the platelet gate, whole blood that had been collected into EDTA was used. 5 μl of EDTA anticoagulated blood was added to 50 μl Hepes-buffered saline and analysed by forward and side scatter in a flow cytometer (e.g. Beckman Coulter MCL-XL). A gate was set around the platelet population so that>98% of the single platelets are contained within the platelet gate.
(ii) 400 μL of platelet-depleted plasma, with a platelet count of 10-60×10^6/ml, was mixed with 20 μL of control microspheres (blank capsules as disclosed in Example 1, Method 1 (i)) at 10 mg albumin/ml and ADP was added at final concentrations of between 1 and 4×10^−5 M. The sample was stirred at 900 rpm at 37° C. in an aggregometer cuvette for up 10 minutes and aggregation was measured as the change in light transmission (as described in section 4.2 below). The ADP concentration that gave>0% and<20% aggregation was used for the subsequent analysis of the interaction of the product with platelet-depleted plasma.
(iii) To test the products, 400 μL of platelet-depleted plasma, with a platelet count of 10-60×10^6/ml, was mixed with 20 μL of test microspheres at 10 mg albumin/ml and ADP at a concentration determined as described above. The sample was mixed at 900 rpm for up to 10 minutes. At appropriate times 5 μl aliquots were removed for flow cytometric analysis as follows.
(iv) For the analysis 5 μl of test sample was added to 50 μ1 Hepes-buffered saline containing an appropriate concentration of a fluorescently-conjugated antibody to an antigen present on all platelets. We used 1 μl of an RPE-conjugated CD42b monoclonal antibody (we used antibody 555473 provided by BD Harlingen). The sample was incubated for 20 minutes at room temperature (typically 20° C. ) then diluted with 0.5 ml formyl saline (0.2% formalin in 0.9% NaCl).
(v) The diluted sample was then analysed by forward and side scatter in a flow cytometer (e.g. Beckman Coulter MCL-XL) using the gate set around the platelet population in the control sample (see 4.1.i), allowing a fixed volume of sample (e.g. 20 μl) to pass through the cytometer. Particles enclosed in the platelet gate were analysed for fluorescence to identify the number of single platelets within the gate. […]

platelets [2] = test: Platelet aggregation in platelet-depleted plasma by light transmission (PAP-4 aggregometer); format: cell-based, human
Method: 4.2 Method for Measuring Aggregation by Light Transmission Using the PAP-4 Platelet Aggregometer
In this system the product was mixed with platelet-depleted plasma in a stirred system at […] and aggregation was measured by a change in light transmission.
(i) 400 μl of platelet-depleted plasma was mixed with 20 μl of blank microspheres at 10 mg albumin/ml.
(ii) ADP was added at concentrations between 1 and 4×10^−5M
(iii) Aggregation was measured over 20 minutes and recorded as the percentage of maximum using autologous plasma to set the value for 100% aggregation.

platelets [3] = settings: purified peptide; cited from earlier work
fibrinogen (human) [4] = molecular target: fibrinogen (human) (UniProt P02671); test: flow cytometry, FITC anti-human fibrinogen; albumin microspheres without peptide, fibrinogen bound directly to the surface
Chain of fibrinogen (human) (P02671 20-629 limits assumed, chain 1 of 3): as the sequence (P02671 20-629 partner limits assumed) above
Chain of fibrinogen (human) (P02675 31-491 limits assumed, chain 2 of 3, further chain): as the sequence (P02675 31-491) above
Chain of fibrinogen (human) (P02679 other isoform, or with tags, fused parts or gaps limits assumed, chain 3 of 3, further chain): as the sequence (P02679 27-437 isoform P02679-2 limits assumed) above

fibrinogen (human) [5] = molecular target: fibrinogen (human) (UniProt P02671); test: flow cytometry, FITC anti-human fibrinogen; albumin microspheres without peptide, coated directly with 10 mg/ml fibrinogen at pH 6.0
fibrinogen (human) [6] = molecular target: fibrinogen (human) (UniProt P02671); test: flow cytometry of peptide-linked albumin microspheres incubated with 3 mg fibrinogen per ml, detected with FITC rabbit anti-human fibrinogen
[7] = listed as peptide-coupled microspheres

Peptide Gly^n = 0: albumin microspheres with bound peptide GPRPC, incubated with 3 mg fibrinogen
Percent positive (percentage of microspheres positive for fibrinogen) (fibrinogen): 6% | Median fluorescence intensity (fibrinogen): 2.4 arbitrary units (log scale)

Peptide Gly^n = 3: albumin microspheres with bound peptide GPRPGGGC, incubated with 3 mg fibrinogen
Percent positive (percentage of microspheres positive for fibrinogen) (fibrinogen): 94% | Median fluorescence intensity (fibrinogen): 28 arbitrary units (log scale)

Peptide Gly^n = 6: albumin microspheres with bound peptide GPRPGGGGGGC, incubated with 3 mg fibrinogen
Percent positive (percentage of microspheres positive for fibrinogen) (fibrinogen): 95% | Median fluorescence intensity (fibrinogen): 26 arbitrary units (log scale)

Product 2: albumin microspheres with peptide GPRPGGGGGGC bound, without fibrinogen
Percent positive (percentage of microspheres positive for fibrinogen) (fibrinogen): 13.1% | Percent positive (percentage of microspheres positive for fibrinogen) (fibrinogen; listed as 0 mg/ml): 0% | Median fluorescence intensity (fibrinogen): 1.6 arbitrary units (log scale) | Median fluorescence intensity (fibrinogen; listed as 0 mg/ml): 0 arbitrary units (log scale) | Percentage aggregation in the absence of thrombin (thrombin): 4.75 ± 4.4% | Percentage aggregation in the absence of thrombin (thrombin; listed as 0 mg/ml): 4.25 ± 4.93% | Percentage aggregation in the absence of ADP (platelets [1]): 17.8 ± 3.5% | Percentage aggregation in the absence of ADP (platelets [1]; listed as 0 mg/ml): 17.9 ± 3.45% | Percentage aggregation in the absence of ADP (platelets [1]; [7]): 17.8±3.5% | Percentage aggregation in the presence of ADP (platelets [1]): 57.3 ± 9.3% | Percentage aggregation in the presence of ADP (platelets [1]; listed as 0 mg/ml): 57.6 ± 7.64% | Percentage aggregation in the presence of ADP (platelets [1]; [7]): 57.3±9.3% | Aggregation in the absence of ADP (aggregometry) (platelets [2]): only low levels of aggregation

TDVNGDGRHDL [Product B12]
Effect on platelet aggregation (platelets [3]): caused inhibition of platelet aggregation

human albumin microspheres of the reference batch (fibrinogen bound directly to the surface, method of WO 98/17319) (from UniProt P02768 25-609)
Median fluorescence intensity (arbitrary units (log scale)) (fibrinogen (human) [4]): 22.4 | Percent positive (fibrinogen (human) [4]): 94.7% | Median fluorescence intensity (arbitrary units (log scale)) (fibrinogen (human) [5]): 22 | Percent positive (fibrinogen (human) [5]): 94%

B1: peptide GPRPC linked to human albumin microspheres (peptide)
peptide: GPRPC
modifications: also: Cys5 thiol bound to human albumin microspheres (DTNB-activated thiol)
Median fluorescence intensity (arbitrary units (log scale)) (fibrinogen (human) [6]): 2.4 | Percent positive (fibrinogen (human) [6]): 6%
